# Experimental data taken from the supplement of paper PMC12764529.
# ± gives the half width of the 95% confidence interval.
# Assay: folding stability dG unfold (combined trypsin and chymotrypsin); higher = more stable
# Procedure, shortened: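 Only designs with AlphaFold2 dimer inter-PAE above 15 were retained; each was a mini-protein under 80 residues with no cysteine, in a PA-tagged cDNA display construct. After digestion with trypsin and chymotrypsin and sequencing, K50 was inferred by Bayesian fitting of counts, and unfolding free energy was derived per protease or combined against a sequence-predicted unfolded-state K50 and a shared folded-state K50.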
row,Sequence,folding stability dG unfold [kcal/mol]
1,SAMLRIRVEYEDGRVEDIVIPLAGEDPPFGKEAVEEAAERIAKEVEEKYGLKNVKTEVEAFPVSPEELLSAG [r14_378_TrMRF],0.818 ± 0.1
2,SAGGSAGGSKTIKIEIEKMSEEELKNLTAEEIAKLLGVKEVKVTKEKIEITLTEEELKKLEKKSAGGSAGGS [r12_178_TrROS_Hall],0.856 ± 0.14
3,SAGGSATKELVLEIAEEIAPRFQKEGWPIKRVTVKVVRTPDGQVTIPVRIRFPDGKPIMQWNITIPSAGGSA [r15_232_TrROS],0.779 ± 0.17
4,SAGGSAMLENLPELDIKIKVEYKAEILPDGSLLIPAKIELEIGDKKFEFEAKILINPNGEITIEIGSAGGSA [r15_891_TrMRF],2.96 ± 0.31
5,SAGLIKIERTGDKLTITIPLKGAPPGAQVRIMVFTDGKVEEHWIPPGKEVEITIPPDNIHIFIQIYPPDSAG [r5_867_TrROS],3.33 ± 0.32
6,SAGGKIIAEGEFELEDGYVVRVKVEYDEETGELRVEVEVFEVEVELPEVEVKREFSDEELTEEEKEASAGGS [r8_461_TrROS_Hall],1.39 ± 0.25
7,SAGMITLPTRGPEELIERLRAIAEELGLSEEDIEQFLRDLAEHATIEQDGDLLLITFQPPVPALPGEPESAG [r5_717_TrMRF],1.74 ± 0.17
8,SAGGSAGGSAGGMVIRLEDGRTLVFETREEAEEAAKALAEELGLKEVKVEIVEVPLEELPSAGGSAGGSAGG [r7_839_TrROS_Hall],2.4 ± 0.045
9,SAGGSAGGSAGGSTPSFTPVLELEFEFENDVVVRVRLYRLPDEDTYLLEVEVAPDSLKDSAGGSAGGSAGGS [r4_163_TrMRF],3.62 ± 0.13
10,SAGTIHFMVPRDEMSDEEAEDIVNTIAKHFPGFKIDRIYWHKQPDPDGDPRRMYHVEIKIKIPLPPGMKSAG [r5_835_TrROS],2.06 ± 0.059
11,SAGGMKTFTLENPPLAPPDRPLGGSTLKLPDGTVLVRINLPSGETILLPSYEELEKLKASGEPVSVTASSAG [r5_42_JUSTAS],0.348 ± 0.12
12,SAGELKITIAVFRPVEKDENGKEVKVELVEVKTITISKEDLTEEEILKLAEELKKKFPNTVILVTIEPSAGG [r19_369_TrROS_Hall],2.91 ± 0.19
13,SAGGMEIKVTVEKREDGYLVVTVEKAESKEEAIEAIKKELREKYPDAEITITDKDGNTIVIKLKDLKSAGGS [r8_236_TrROS_Hall],2.06 ± 0.067
14,SAGGMIRIERDGDRLTIEIHLPEGEELTPEQLEELARALLEELGPDARVVRVERLEDGTVRIEVELPSAGGS [r8_103_TrROS_Hall],2.88 ± 0.13
15,SASSELLELLKALPTPEVPTDPIFTLEEPDRPIRVLSYDPETGLVTMLIPGTGARLIRDPASGTYTLLPSAG [r14_359_JUSTAS],0.578 ± 0.066
16,SAGGSAGGSASSMVTVTVSVSPDEGDEEVAKEIAKELGRPDAKVTKITYDPATGTLTITLVDSAGGSAGGSA [r18_481_JUSTAS],1.58 ± 0.11

row,Sequence,folding stability dG unfold [kcal/mol]
1,SAGGSADELVVRLRVRDPRTERPLEIDLPVPASLTPEEAIARAERLAAAFRSLGLETEVEVEPVPRSAGGSA [r15_268_TrMRF],1.73 ± 0.046
2,SAGGSAGGSAGGMKVIPFESLEEAREYIKANPDENVLLEFPDALLELTKPDDIKKIEKKPSAGGSAGGSAGG [r7_532_JUSTAS],0.28 ± 0.084
3,SAGGSAGGGSLSKPKKYELVATFTFPGTVEEAKEFLEKLLPEDWKVEIEETPDFLKIKLYKRLDSAGGSAGG [r6_952_TrMRF],4.06 ± 0.063
4,SAGGSAGGSGKVLVLPLPGGTVEEVKEIAKEIKEKYPNAKVTTEVFPTPEGDLVAVVTLENPESAGGSAGGS [r12_425_TrMRF],0.0277 ± 0.22
5,SPKIKIVSVSRTAGGALVALLELEDRPITLYRPLALPYILASAEIPGTNEVKTILAPSSISPEEIAKLLGSA [r9_522_TrMRF],1.75 ± 0.089
6,SAGGAPSSFSTSSDPDGTQLLVVTEPGSGKPRTVRIPPGLNEAVTIPPSRSVSSVELVRVSPASPALLSAGG [r13_122_JUSTAS],-0.803 ± 0.14
7,SAGGMKVTVYPDGTVSVEIEPGQTLTVSLGDKEYTVTAEYPSITITTTPVPVPPPAVPPENVDPSLVSAGGS [r16_600_JUSTAS],1.23 ± 0.15
8,SAGGSAGGSKNMVMVEIPFEHKVKQPDPPDGKWRQHEHKPTIPYMIPPEDAEELLNSPALKKISAGGSAGGS [r12_1015_TrROS],0.043 ± 0.19
9,SAGGWQKVEFMIEIPGGGSLDQAKDEVEEFADYLRKKAGFKDVDVDVQVDPDGWVYVMVEIEVPPNASAGGS [r8_3_TrROS],1.87 ± 0.062
10,SAGGTRTIWFPVDDIREALPPDNIKKVEVEPVGPENNWYKVTIEFPDYKIEIQYYPEEPGMFMVTITDSAGG [r13_942_TrROS],2.13 ± 0.29
11,WLKFPFPIYNPGFGRPAKFEIELWPDGQLQVTWNGQPILSIPIRIVPPPEVEVDPEYDPNGKEKPKWKYPGS [r1_496_TrROS],1.39 ± 0.35
12,SAGGSAGGSMEVNLKVTVTYPDGTVVELEIPKVSTEDGKSVEDVAKEIEALPDVKEVEVEIVESAGGSAGGS [r12_199_JUSTAS],1.55 ± 0.27
13,SAGGSAGGSAGGDNFEIEPDISWNPDYGYISIDWTVTIGGKEQPFTIMIPVRLPPPPEDDSAGGSAGGSAGG [r7_413_TrROS],1.14 ± 0.22
14,SAGGSAGGSAGGMTLRIRVRNKDGKVLEIEVEVDEDKTPEEVARELAKKLNVEKVEIFPSAGGSAGGSAGGS [r10_400_TrROS_Hall],2.28 ± 0.13
15,SAGGKPPKIVVKVEKAPNPETGTYTYKVVLYDPVTGKAYVKPVKTKTPEELEKKAKEVAEELAKELASAGGS [r8_480_TrMRF],1.17 ± 0.084
16,SAGGSAGGSAGNYMVRLEIEMPENGRKVEWMVPEDDPEEILEKFPWLKEHGMEVKIEVFPSAGGSAGGSAGG [r17_176_TrROS],0.498 ± 0.1
